Results reported in patent US20210130436A1 (published 2021).
Changes are numbered by the printed parent chain. Names may count otherwise. Blank lines part the entries; values can stand above or below the binder they belong to.

Experiments:
[1] = target: T1, human CD28, endogenously expressed on Jurkat/IL2 reporter cells (human, UniProt P10747 19-220); assay: flow cytometry on Jurkat cells (CD28); MFI against WT CD80 ECD-Fc (R&D)
T1 construct: This is the endogenous CD28 of Jurkat cells

[2] = target: T2, human PD-L1 (CD274), full-length, expressed on the surface of CHO cells (human, UniProt Q9NZQ7 19-290); assay: flow cytometry; MFI on PD-L1 CHO cells over MFI on Jurkat cells (CD28)
T2 construct: also called huPD-L1; B7-H1

[3] = target: T3, human CTLA-4 (CTLA4), full-length, expressed on the surface of CHO cells (human, UniProt P16410 36-223); assay: flow cytometry, CHO cells stably expressing human CTLA-4, 33.3 nM Fc fusion, PE anti-human Fc
T3 construct: also called huCTLA4

[4] = target: T1, human CD28, endogenously expressed on …; assay: flow cytometry, Jurkat/IL2 reporter cells (endogenous CD28), 33.3 nM Fc fusion, PE anti-human Fc
[5] = target: T2, human PD-L1 (CD274), full-length, …; assay: flow cytometry, CHO cells stably expressing human PD-L1, 33.3 nM Fc fusion, PE anti-human Fc
[6] = target: T2, human PD-L1 (CD274), full-length, …; assay: flow cytometry on PD-L1 CHO cells; MFI against WT CD80 ECD-Fc (R&D)
[7] = target: T3, human CTLA-4 (CTLA4), full-length, …; assay: flow cytometry on CTLA-4 CHO cells; MFI against WT CD80 ECD-Fc (R&D)
[8] = target: T4, human PD-L1 (huPD-L1), full-length, stably expressed on CHO cells (human, UniProt Q9NZQ7 19-290); assay: flow cytometry, CHO cells expressing huPD-L1
T4 construct: whole, on cells

[9] = target: T4, human PD-L1 (huPD-L1), full-length, …; assay: flow cytometry, CHO cells expressing huPD-L1; MFI against WT CD80 of the table
[10] = target: T4, human PD-L1 (huPD-L1), full-length, …; assay: flow cytometry; MFI on PD-L1 CHO cells over MFI on Jurkat cells (CD28)
[11] = target: T5, human CTLA4 (huCTLA4), full-length, stably expressed on CHO cells (human, UniProt P16410 36-223); assay: flow cytometry, CHO cells expressing huCTLA4; MFI against WT CD80 of the table
T5 construct: whole, on cells

[12] = target: T5, human CTLA4 (huCTLA4), full-length, …; assay: flow cytometry, CHO cells expressing huCTLA4
[13] = target: T6, human PD-L1 (human, UniProt Q9NZQ7 19-290); assay: flow cytometry on CHO cells stably expressing PD-L1
T6 construct: also called huPD-L1; CD274

[14] = target: T7, human CD28 (human, UniProt P10747 19-220); assay: flow cytometry on Jurkat cells (CD28)
T7 construct: Endogenous CD28 on Jurkat/IL2 reporter cells

T5 sequence (P16410 36-223): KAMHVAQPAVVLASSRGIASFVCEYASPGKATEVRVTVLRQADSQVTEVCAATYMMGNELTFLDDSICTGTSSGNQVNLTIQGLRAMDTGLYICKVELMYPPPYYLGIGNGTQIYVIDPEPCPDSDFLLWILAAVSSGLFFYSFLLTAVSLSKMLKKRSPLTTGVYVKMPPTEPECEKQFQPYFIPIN
T3 sequence (P16410 36-223): as above
T4 sequence (Q9NZQ7 19-290): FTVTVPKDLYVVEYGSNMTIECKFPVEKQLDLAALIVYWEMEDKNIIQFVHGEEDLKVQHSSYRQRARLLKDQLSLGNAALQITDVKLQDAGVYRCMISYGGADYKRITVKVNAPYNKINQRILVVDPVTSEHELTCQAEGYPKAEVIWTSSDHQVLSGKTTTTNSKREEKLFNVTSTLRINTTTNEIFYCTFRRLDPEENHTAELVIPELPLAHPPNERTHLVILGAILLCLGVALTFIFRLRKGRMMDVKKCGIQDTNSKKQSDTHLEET
T2 sequence (Q9NZQ7 19-290): as above
T6 sequence (Q9NZQ7 19-290): as above

MFI at 33.3 nM [8]: 16500 MFI | Fold change to WT CD80 [9]: 320 fold | Ratio of PDL1:CD28 [10]: 1130 ratio | Fold change to WT CD80 [11]: 0.1 fold | MFI at 33.3 nM [12]: 178 MFI
B2: variant CD80 IgV-Fc Q27L/Q33L/E35D/T41S/M47V/N48K/V68M/L85M (Fc fusion, not shown: small tags and cut ends; a dimerising Fc or GST)
chain: VIHVTKEVKEVATLSCGHNVSVEELALTRIYWLKDKKMVLSMMSGDVKIWPEYKNRTIFDITNNLSIMILALRPSDEGTYECVVMKYEKDAFKREHLAEVTLSVKAD

MFI at 33.3 nM [8]: 16500 MFI | Fold change to WT CD80 [9]: 320 fold | Ratio of PDL1:CD28 [10]: 1110 ratio | Fold change to WT CD80 [11]: 0.1 fold | MFI at 33.3 nM [12]: 107 MFI
B4: variant CD80 IgV-Fc Q33R/E35D/M38I/M47L/V68M (Fc fusion, not shown: small tags and cut ends; a dimerising Fc or GST)
chain: B2 chain with L27Q, L33R, M38I, S41T, V47L, K48N, M85L

Fold change to WT [1]: 0.04 fold | Ratio of PDL1:CD28 [2]: 285 ratio | MFI at 33.3 nM [3]: 3840 MFI | MFI at 33.3 nM [4]: 268 MFI | MFI at 33.3 nM [5]: 76400 MFI | Fold change to WT [6]: 9.61 fold | Fold change to WT CD80 [7]: 0.02 fold
B6: variant CD80 IgV-Fc H18Y/Y31H/E35D/M47V/A71G/L85Q (Fc fusion, not shown: a dimerising Fc or GST)
chain: B2 chain with H18Y, L27Q, Y31H, L33Q, S41T, K48N, M68V, A71G, M85Q

Fold change to WT [1]: 0.04 fold | Ratio of PDL1:CD28 [2]: 407 ratio | MFI at 33.3 nM [3]: 173000 MFI | MFI at 33.3 nM [4]: 299 MFI | MFI at 33.3 nM [5]: 122000 MFI | Fold change to WT [6]: 15.3 fold | Fold change to WT CD80 [7]: 0.97 fold
B7: variant CD80 IgV-Fc H18Y/E35D/V68M/L97Q (Fc fusion, not shown: a dimerising Fc or GST)
chain: B2 chain with H18Y, L27Q, L33Q, S41T, V47M, K48N, M85L, L97Q

Fold change to WT [1]: 0.04 fold | Ratio of PDL1:CD28 [2]: 107 ratio | MFI at 33.3 nM [3]: 1080 MFI | MFI at 33.3 nM [4]: 272 MFI | MFI at 33.3 nM [5]: 29000 MFI | Fold change to WT [6]: 3.65 fold | Fold change to WT CD80 [7]: 0.01 fold
B8: variant CD80 IgV-Fc Q33L/E35D/M43I/L85Q/R94W (Fc fusion, not shown: a dimerising Fc or GST)
chain: B2 chain with L27Q, S41T, M43I, V47M, K48N, M68V, M85Q, R94W

Fold change to WT [1]: 0.04 fold | Ratio of PDL1:CD28 [2]: 162 ratio | MFI at 33.3 nM [3]: 1180 MFI | MFI at 33.3 nM [4]: 279 MFI | MFI at 33.3 nM [5]: 45200 MFI | Fold change to WT [6]: 5.69 fold | Fold change to WT CD80 [7]: 0.01 fold
B9: variant CD80 IgV-Fc Q33L/E35D/N48K/L85Q/L97Q (Fc fusion, not shown: a dimerising Fc or GST)
chain: B2 chain with L27Q, S41T, V47M, M68V, M85Q, L97Q

Continued, binder first:

B1: variant CD80 IgV-Fc E35D/M47V/T62A/A71G/V83A/Y87H/L97M (Fc fusion, not shown: a dimerising Fc or GST)
chain: VIHVTKEVKEVATLSCGHNVSVEELAQTRIYWQKDKKMVLTMMSGDVNIWPEYKNRTIFDIANNLSIVILGLRPSDEGTYECAVLKHEKDAFKREHMAEVTLSVKAD
Fold change to WT [1]: 0.04 fold | Ratio of PDL1:CD28 [2]: 255 ratio | MFI at 33.3 nM [3]: 18100 MFI | MFI at 33.3 nM [4]: 305 MFI | MFI at 33.3 nM [5]: 77500 MFI | Fold change to WT [6]: 9.76 fold | Fold change to WT CD80 [7]: 0.1 fold

B3: variant CD80 IgV-Fc E35D/D46E/M47L/V68M/T79M/L85M/L97Q (Fc fusion, not shown: small tags and cut ends; a dimerising Fc or GST)
chain: B2 chain with L27Q, L33Q, S41T, D46E, V47L, K48N, T79M, L97Q
MFI at 33.3 nM [8]: 4620 MFI | Fold change to WT CD80 [9]: 89.7 fold | Ratio of PDL1:CD28 [10]: 325 ratio | Fold change to WT CD80 [11]: 0.1 fold | MFI at 33.3 nM [12]: 96 MFI

B5: variant CD80 IgV-Fc E35D/D46E/M47V/L97Q (Fc fusion, not shown: a dimerising Fc or GST)
chain: B1 chain with D46E, A62T, G71A, A83V, H87Y, M97Q
Fold change to WT [1]: 0.05 fold | Ratio of PDL1:CD28 [2]: 52 ratio | MFI at 33.3 nM [3]: 305000 MFI | MFI at 33.3 nM [4]: 371 MFI | MFI at 33.3 nM [5]: 19500 MFI | Fold change to WT [6]: 2.45 fold | Fold change to WT CD80 [7]: 1.71 fold

B10: CD80 E35D/M47V/N48K/V68M/K89N IgV-Fc, GS(G4S)3 linker (Fc fusion, not shown: a dimerising Fc or GST)
chain: VIHVTKEVKEVATLSCGHNVSVEELAQTRIYWQKDKKMVLTMMSGDVKIWPEYKNRTIFDITNNLSIMILALRPSDEGTYECVVLKYENDAFKREHLAEVTLSVKADGSGGGGSGGGGSGGGGS
MFI at 33.3 nM [13]: 24200 MFI | MFI at 33.3 nM [14]: 2110 MFI

B11: CD80 E35D/D46V/M47L/V68M/L85Q/E88D IgV-Fc, GS(G4S)3 linker (Fc fusion, not shown: a dimerising Fc or GST)
chain: B10 chain with D46V, V47L, K48N, L85Q, E88D, N89K
MFI at 33.3 nM [13]: 22600 MFI | MFI at 33.3 nM [14]: 267 MFI
